Test results reported in US20100136005A1 (Genentech, published 2010).

Tests used:
rhesus CD11a [1] = molecular target: T1, rhesus CD11a (rhesus, UniProt H9Z8N3 26-1169); assay: binding to rhesus peripheral blood lymphocytes
T1 construct: whole, on cells; also called rhCD11a
T1 sequence: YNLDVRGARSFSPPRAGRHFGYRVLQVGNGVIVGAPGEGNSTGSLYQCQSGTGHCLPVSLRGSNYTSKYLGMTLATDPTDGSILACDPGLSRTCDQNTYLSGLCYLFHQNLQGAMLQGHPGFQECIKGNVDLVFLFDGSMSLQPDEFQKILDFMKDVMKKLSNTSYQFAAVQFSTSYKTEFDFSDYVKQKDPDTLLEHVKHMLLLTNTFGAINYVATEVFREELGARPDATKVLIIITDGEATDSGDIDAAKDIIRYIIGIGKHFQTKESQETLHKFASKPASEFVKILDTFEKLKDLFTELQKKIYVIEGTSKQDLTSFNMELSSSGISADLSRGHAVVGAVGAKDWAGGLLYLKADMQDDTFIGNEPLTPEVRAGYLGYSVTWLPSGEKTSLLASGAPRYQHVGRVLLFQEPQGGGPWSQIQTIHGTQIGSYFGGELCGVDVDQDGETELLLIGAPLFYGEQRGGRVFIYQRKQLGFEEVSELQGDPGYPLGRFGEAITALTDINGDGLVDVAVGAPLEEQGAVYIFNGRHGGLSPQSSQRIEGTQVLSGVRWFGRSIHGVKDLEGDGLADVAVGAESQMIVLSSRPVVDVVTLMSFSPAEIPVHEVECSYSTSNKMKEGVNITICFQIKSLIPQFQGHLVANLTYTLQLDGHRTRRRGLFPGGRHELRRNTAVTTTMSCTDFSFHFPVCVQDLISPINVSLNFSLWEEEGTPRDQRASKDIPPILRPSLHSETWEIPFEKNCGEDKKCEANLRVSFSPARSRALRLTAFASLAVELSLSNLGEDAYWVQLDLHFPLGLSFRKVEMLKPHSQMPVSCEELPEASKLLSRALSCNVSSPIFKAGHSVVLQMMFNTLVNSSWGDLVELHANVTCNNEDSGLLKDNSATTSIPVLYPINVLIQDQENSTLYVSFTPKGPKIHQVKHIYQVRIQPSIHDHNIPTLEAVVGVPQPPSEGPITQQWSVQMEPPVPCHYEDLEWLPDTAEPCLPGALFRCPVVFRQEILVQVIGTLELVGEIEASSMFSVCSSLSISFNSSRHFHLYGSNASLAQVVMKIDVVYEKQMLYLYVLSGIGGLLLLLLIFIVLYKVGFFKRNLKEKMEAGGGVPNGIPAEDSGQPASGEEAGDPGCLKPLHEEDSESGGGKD

human CD11a [2] = molecular target: T2, human CD11a (human, UniProt P20701 26-1170); assay: FACScan, Jurkat cells
T2 construct: whole, on cells; On cells as LFA-1 together with CD18; also called alpha subunit of LFA-1 (CD11a/CD18)
Protocol: (§1) Aliquots of 10⁶ Jurkat T-cells were incubated with serial dilutions of humanized and control antibodies in PBS-0.1% BSA-10 mM sodium azide for 45 min at 4° C. The cells were washed and then incubated in fluorescein-conjugated goat anti-human F(ab′)₂ (Organon Teknika, Westchester, Pa.) for 45 min at 4° C. Cells were washed and analysed on a FACScan (Becton Dickinson, Mountain View, Calif.). 8×10³ cells were acquired by list mode and gated by forward light scatter versus side light scatter, thereby excluding dead cells and debris.

human CD11a [3] = molecular target: T2, human CD11a; assay: FACScan, Jurkat cells; ratio to HuIgG1 EC50 (0.042 nM)
Protocol: as §1

rhesus CD11a [4] = molecular target: T1, rhesus CD11a; assay: binding to rhesus peripheral blood lymphocytes; ratio to HuIgG1 EC50 (45.6 nM)
human CD11a [5] = molecular target: T2, human CD11a; assay: cell-based or functional assay
rhesus CD11a [6] = molecular target: T1, rhesus CD11a; assay: cell binding, rhesus against human CD11a
human CD11a [7] = molecular target: T2, human CD11a; assay: cell-based or functional assay; remark: listed apart in the source

B1: AspH54Ala (antibody, human IgG1, V domains shown)
VH: EVQLVESGGGLVQPGGSLRLSCAASGYSFTGHWMNWVRQAPGKGLEWVGMIHPSASETRYNQKFKDRFTISVDKSKNTLYLQMNSLRAEDTAVYYCARGIYFYGTTYFDYWGQGTLVTVSS
VL: DIQMTQSPSSLSASVGDRVTITCRASKTISKYLAWYQQKPGKAPKLLIYSGSTLQSGVPSRFSGSGSGTDFTLTISSLQPEDFATYYCQQHNEYPLTFGQGTKVEIK
notes: HuIgG1 variant (human IgG1); also called AspH54 change to Ala
fold improvement over HuIgG1 (rhesus CD11a [1]): 3 fold

B2: humanized MHM24 F(ab)-4 (Fab, V domains shown)
VH: EVQLVESGGGLVQPGGSLRLSCAASGFSFTGHWMNWVRQAPGKGLEWVGMIHPSDSETRYNQKFKDRFTISRDNSKNTLYLQMNSLRAEDTAVYYCARGIYFYGTTYFDYWGQGTLVTVSS
VL: DIQMTQSPSSLSASVGDRVTITCRASKTISKYLAWYQQKPGKAPKLLIYSGSSLESGVPSRFSGSGSGTDFTLTISSLQPEDFATYYCQQHNEYPLTFGQGTKVEIK
fold reduction in binding (against F(ab)-2) (human CD11a [2]): 3 fold

B3: AspH54Glu (antibody, human IgG1, V domains shown)
VH: EVQLVESGGGLVQPGGSLRLSCAASGYSFTGHWMNWVRQAPGKGLEWVGMIHPSESETRYNQKFKDRFTISVDKSKNTLYLQMNSLRAEDTAVYYCARGIYFYGTTYFDYWGQGTLVTVSS
VL: DIQMTQSPSSLSASVGDRVTITCRASKTISKYLAWYQQKPGKAPKLLIYSGSTLQSGVPSRFSGSGSGTDFTLTISSLQPEDFATYYCQQHNEYPLTFGQGTKVEIK
notes: HuIgG1 variant (human IgG1); also called AspH54 change to Glu
Variant EC50/HuIgG1 EC50 (human CD11a [3]): 16 ratio

B4: AspH54Gln (antibody, human IgG1, V domains shown)
VH: EVQLVESGGGLVQPGGSLRLSCAASGYSFTGHWMNWVRQAPGKGLEWVGMIHPSQSETRYNQKFKDRFTISVDKSKNTLYLQMNSLRAEDTAVYYCARGIYFYGTTYFDYWGQGTLVTVSS
VL: DIQMTQSPSSLSASVGDRVTITCRASKTISKYLAWYQQKPGKAPKLLIYSGSTLQSGVPSRFSGSGSGTDFTLTISSLQPEDFATYYCQQHNEYPLTFGQGTKVEIK
notes: HuIgG1 variant (human IgG1); also called AspH54 change to Gln
Variant EC50/HuIgG1 EC50 (human CD11a [3]): 20 ratio | Variant EC50/HuIgG1 EC50 (rhesus CD11a [4]): 4.4 ratio

B5: H2A1 (antibody, human IgG1, V domains shown)
VH: EVQLVESGGGLVQPGGSLRLSCAASGYSFTGHWMNWVRQAPGKGLEWVGMIAPADSETRYNQKFKDRFTISVDKSKNTLYLQMNSLRAEDTAVYYCARGIYFYGTTYFDYWGQGTLVTVSS
VL: DIQMTQSPSSLSASVGDRVTITCRASKTISKYLAWYQQKPGKAPKLLIYSGSTLQSGVPSRFSGSGSGTDFTLTISSLQPEDFATYYCQQHNEYPLTFGQGTKVEIK
notes: HuIgG1 variant (human IgG1); also called HisH52Ala/SerH53Ala; HisH52Ala-SerH53Ala
fold improvement in binding compared to HuIgG1 (rhesus CD11a [1]): 77 fold

B6: H2 (antibody, human IgG1, V domains shown)
VH: EVQLVESGGGLVQPGGSLRLSCAASGYSFTGHWMNWVRQAPGKGLEWVGMIAPADAETRYNQKFKDRFTISVDKSKNTLYLQMNSLRAEDTAVYYCARGIYFYGTTYFDYWGQGTLVTVSS
VL: DIQMTQSPSSLSASVGDRVTITCRASKTISKYLAWYQQKPGKAPKLLIYSGSTLQSGVPSRFSGSGSGTDFTLTISSLQPEDFATYYCQQHNEYPLTFGQGTKVEIK
notes: HuIgG1 variant (human IgG1); also called variant H2; HisH52Ala/SerH53Ala/SerH55Ala
fold better than HuIgG1 (rhesus CD11a [1]): 18 fold

B7: AspH54Asn (antibody, human IgG1, V domains shown)
VH: EVQLVESGGGLVQPGGSLRLSCAASGYSFTGHWMNWVRQAPGKGLEWVGMIHPSNSETRYNQKFKDRFTISVDKSKNTLYLQMNSLRAEDTAVYYCARGIYFYGTTYFDYWGQGTLVTVSS
VL: DIQMTQSPSSLSASVGDRVTITCRASKTISKYLAWYQQKPGKAPKLLIYSGSTLQSGVPSRFSGSGSGTDFTLTISSLQPEDFATYYCQQHNEYPLTFGQGTKVEIK
notes: HuIgG1 variant (human IgG1); also called AspH54 change to Asn
fold improvement of rhesus binding (against HuIgG1) (rhesus CD11a [1]): 10 fold | Variant EC50/HuIgG1 EC50 (human CD11a [3]): 26 ratio | Variant EC50/HuIgG1 EC50 (rhesus CD11a [4]): 0.1 ratio

B8: humanized MHM24 F(ab)-5 (Fab, V domains shown)
VH: EVQLVESGGGLVQPGGSLRLSCAASGFSFTGHWMNWVRQAPGKGLEWVGMIHPSDSETRYNQKFKDRFTISVDKSSSTLYLQMNSLRAEDTAVYYCARGIYFYGTTYFDYWGQGTLVTVSS
VL: DIQMTQSPSSLSASVGDRVTITCRASKTISKYLAWYQQKPGKAPKLLIYSGSSLESGVPSRFSGSGSGTDFTLTISSLQPEDFATYYCQQHNEYPLTFGQGTKVEIK
notes: F(ab) with human CL and CH1; Worked back from F(ab)-8
fold improvement in binding (against F(ab)-2) (human CD11a [2]): 23 fold

B9: GluH56Ala (antibody, human IgG1, V domains shown)
VH: EVQLVESGGGLVQPGGSLRLSCAASGYSFTGHWMNWVRQAPGKGLEWVGMIHPSDSATRYNQKFKDRFTISVDKSKNTLYLQMNSLRAEDTAVYYCARGIYFYGTTYFDYWGQGTLVTVSS
VL: DIQMTQSPSSLSASVGDRVTITCRASKTISKYLAWYQQKPGKAPKLLIYSGSTLQSGVPSRFSGSGSGTDFTLTISSLQPEDFATYYCQQHNEYPLTFGQGTKVEIK
notes: HuIgG1 variant (human IgG1)
fold improvement over HuIgG1 (rhesus CD11a [1]): 3 fold

B10: AspH54Ser (antibody, human IgG1, V domains shown)
VH: EVQLVESGGGLVQPGGSLRLSCAASGYSFTGHWMNWVRQAPGKGLEWVGMIHPSSSETRYNQKFKDRFTISVDKSKNTLYLQMNSLRAEDTAVYYCARGIYFYGTTYFDYWGQGTLVTVSS
VL: DIQMTQSPSSLSASVGDRVTITCRASKTISKYLAWYQQKPGKAPKLLIYSGSTLQSGVPSRFSGSGSGTDFTLTISSLQPEDFATYYCQQHNEYPLTFGQGTKVEIK
notes: HuIgG1 variant (human IgG1); also called AspH54 change to Ser
Variant EC50/HuIgG1 EC50 (rhesus CD11a [4]): 0.9 ratio

B11: humanized MHM24 F(ab)-7 (Fab, V domains shown)
VH: EVQLVESGGGLVQPGGSLRLSCAASGYSFTGHWMNWVRQAPGKGLEWVGMIHPSDSETRYNQKFKDRFTISVDKSSSTLYLQMNSLRAEDTAVYYCARGIYFYGTTYFDYWGQGTLVTVSS
VL: DIQMTQSPSSLSASVGDRVTITCRASKTISKYLAWYQQKPGKAPKLLIYSGSTLQSGVPSRFSGSGSGTDFTLTISSLQPEDFATYYCQQHNEYPLTFGQGTKVEIK
notes: as for B8
fold improvement in binding (against F(ab)-6) (human CD11a [2]): 3 fold

B12: humanized MHM24 F(ab)-6 (Fab, V domains shown)
VH: EVQLVESGGGLVQPGGSLRLSCAASGFSFTGHWMNWVRQAPGKGLEWVGMIHPSDSETRYNQKFKDRFTISVDKSSSTLYLQMNSLRAEDTAVYYCARGIYFYGTTYFDYWGQGTLVTVSS
VL: DIQMTQSPSSLSASVGDRVTITCRASKTISKYLAWYQQKPGKAPKLLIYSGSTLQSGVPSRFSGSGSGTDFTLTISSLQPEDFATYYCQQHNEYPLTFGQGTKVEIK
notes: as for B8
fold improvement in binding (against F(ab)-5) (human CD11a [2]): 4 fold

B13: AspH54Lys (antibody, human IgG1, V domains shown)
VH: EVQLVESGGGLVQPGGSLRLSCAASGYSFTGHWMNWVRQAPGKGLEWVGMIHPSKSETRYNQKFKDRFTISVDKSKNTLYLQMNSLRAEDTAVYYCARGIYFYGTTYFDYWGQGTLVTVSS
VL: DIQMTQSPSSLSASVGDRVTITCRASKTISKYLAWYQQKPGKAPKLLIYSGSTLQSGVPSRFSGSGSGTDFTLTISSLQPEDFATYYCQQHNEYPLTFGQGTKVEIK
notes: HuIgG1 variant (human IgG1); also called AspH54 change to Lys
Variant EC50/HuIgG1 EC50 (rhesus CD11a [4]): 3.8 ratio

B14: murine MHM24 (antibody, V domains shown)
VH: EVQLQQPGAELMRPGASVKLSCKASGYSFTGHWMNWVRQRPGQGLEWIGMIHPSDSETRLNQKFKDKATLTVDKSSSSAYMQLSSPTSEDSAVYYCARGIYFYGTTYFDYWGQGTTLTVSS
VL: DVQITQSPSYLAASPGETISINCRASKTISKYLAWYQEKPGKTNKLLIYSGSTLQSGIPSRFSGSGSGTDFTLTISSLEPEDFAMYYCQQHNEYPLTFGTGTKLELKR
notes: Murine anti-human CD11a MAb; also called muMHM24; murMHM24
IC50 Value (nM), Jurkat:HuK cell adhesion (human CD11a [5]): 0.09 nM | fold reduction in binding (rhesus against human CD11a) (rhesus CD11a [6]): ~1000 fold | IC50 Value (nM), human mixed lymphocyte response (human CD11a [7]): 0.19 nM

B15: chimeric MHM24 IgG1 (antibody, V domains shown)
VH: EVQLQQPGAELMRPGASVKLSCKASGYSFTGHWMNWVRQRPGQGLEWIGMIHPSDSETRLNQKFKDKATLTVDKSSSSAYMQLSSPTSEDSAVYYCARGIYFYGTTYFDYWGQGTTLTVSS
VL: DVQITQSPSYLAASPGETISINCRASKTISKYLAWYQEKPGKTNKLLIYSGSTLQSGIPSRFSGSGSGTDFTLTISSLEPEDFAMYYCQQHNEYPLTFGTGTKLELKR
IC50 Value (nM), Jurkat:HuK cell adhesion (human CD11a [5]): 0.1 nM
